Reference: the supplement of paper PMC9112550, “Optimization of the antimicrobial peptide Bac7 by deep mutational scanning” (BMC Biology, 2022)
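Also: peptides expressed intracellularly from a pBAD plasmid library in pooled LB shake-flask culture, induced with 0.3% L-arabinose, DNA abundance read by NGS, three biological replicates, DESeq2 with apeglm shrinkage.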

What follows are sequences tested on Escherichia coli TOP10 (assay: shrunken log2 fold change of peptide-encoding DNA abundance (4.5 h post-induction vs induction); higher = less antimicrobial activity (less host growth inhibition)). Details: time post-induction: 4.5 h; library: site-saturation at positions 5, 18, 19, 20.
RRIRYRPPRLPRPRPRPKTGPRP was tested, and the “shrunken log2 fold change” value was -0.243.
For RRIRPRPPRLPRPRPRPCGRPRP, the “shrunken log2 fold change” value was 0.302.
With RRIRQRPPRLPRPRPRPVCKPRP the “shrunken log2 fold change” value was 0.0434.
With RRIRYRPPRLPRPRPRPHTIPRP the “shrunken log2 fold change” value was -0.852.
In the case of RRIRGRPPRLPRPRPRPMQWPRP, the “shrunken log2 fold change” value is reported as -0.0537.
RRIRGRPPRLPRPRPRPRFDPRP was tested, and the “shrunken log2 fold change” value was 0.382.
RRIRWRPPRLPRPRPRPHDFPRP was tested, and the “shrunken log2 fold change” value was -0.313.
In the case of RRIRCRPPRLPRPRPRPTAKPRP, the “shrunken log2 fold change” value is reported as 0.226.
With RRIRFRPPRLPRPRPRPVKSPRP the “shrunken log2 fold change” value was -0.159.
With RRIRLRPPRLPRPRPRPTMRPRP the “shrunken log2 fold change” value was 0.836.
For RRIRPRPPRLPRPRPRPFSVPRP, the “shrunken log2 fold change” value was -0.0603.
In the case of RRIRWRPPRLPRPRPRPKHAPRP, the “shrunken log2 fold change” value is reported as 0.222.
For RRIRRRPPRLPRPRPRPSPSPRP, the “shrunken log2 fold change” value was 0.386.
In the case of RRIRQRPPRLPRPRPRPAMCPRP, the “shrunken log2 fold change” value is reported as 0.171.
For RRIRWRPPRLPRPRPRPIMIPRP, the “shrunken log2 fold change” value was -0.28.
For RRIRLRPPRLPRPRPRPCEIPRP, the “shrunken log2 fold change” value was 0.0237.
For RRIRCRPPRLPRPRPRPRLYPRP, the “shrunken log2 fold change” value was -0.307.
RRIRRRPPRLPRPRPRPIPYPRP was tested, and the “shrunken log2 fold change” value was -0.16.
For RRIRLRPPRLPRPRPRPQCIPRP, the “shrunken log2 fold change” value was -0.0123.
For RRIRCRPPRLPRPRPRPSRHPRP, the “shrunken log2 fold change” value was -0.33.
For RRIRVRPPRLPRPRPRPDFTPRP, the “shrunken log2 fold change” value was -0.282.
For RRIRLRPPRLPRPRPRPRYSPRP, the “shrunken log2 fold change” value was -0.087.
RRIRLRPPRLPRPRPRPYMKPRP was tested, and the “shrunken log2 fold change” value was -0.804.
For RRIRKRPPRLPRPRPRPYRGPRP, the “shrunken log2 fold change” value was -0.231.
For RRIRHRPPRLPRPRPRPELLPRP, the “shrunken log2 fold change” value was 0.06.
With RRIRRRPPRLPRPRPRPGYMPRP the “shrunken log2 fold change” value was 0.0939.
With RRIRQRPPRLPRPRPRPLKKPRP the “shrunken log2 fold change” value was -0.15.
In the case of RRIRQRPPRLPRPRPRPHAKPRP, the “shrunken log2 fold change” value is reported as 0.12.
For RRIRFRPPRLPRPRPRPNGDPRP, the “shrunken log2 fold change” value was -0.131.
RRIRQRPPRLPRPRPRPTNEPRP was tested, and the “shrunken log2 fold change” value was -0.395.
RRIRKRPPRLPRPRPRPLPVPRP was tested, and the “shrunken log2 fold change” value was 0.431.
For RRIRMRPPRLPRPRPRPMYRPRP, the “shrunken log2 fold change” value was -0.0586.
RRIRPRPPRLPRPRPRPKNNPRP was tested, and the “shrunken log2 fold change” value was -0.475.
In the case of RRIRVRPPRLPRPRPRPFLGPRP, the “shrunken log2 fold change” value is reported as -0.0486.
For RRIRPRPPRLPRPRPRPFFIPRP, the “shrunken log2 fold change” value was -0.249.
For RRIRNRPPRLPRPRPRPDQRPRP, the “shrunken log2 fold change” value was 0.021.
RRIRWRPPRLPRPRPRPMIYPRP was tested, and the “shrunken log2 fold change” value was -0.542.
RRIRRRPPRLPRPRPRPYDKPRP was tested, and the “shrunken log2 fold change” value was -0.213.
In the case of RRIRMRPPRLPRPRPRPFATPRP, the “shrunken log2 fold change” value is reported as 0.609.
For RRIRIRPPRLPRPRPRPISRPRP, the “shrunken log2 fold change” value was -0.0044.
In the case of RRIRHRPPRLPRPRPRPQNDPRP, the “shrunken log2 fold change” value is reported as 0.0173.
For RRIRRRPPRLPRPRPRPIYRPRP, the “shrunken log2 fold change” value was -0.273.
For RRIRVRPPRLPRPRPRPLYGPRP, the “shrunken log2 fold change” value was -0.426.
In the case of RRIRSRPPRLPRPRPRPTDAPRP, the “shrunken log2 fold change” value is reported as 0.236.
With RRIRFRPPRLPRPRPRPWTHPRP the “shrunken log2 fold change” value was -0.0346.
In the case of RRIRQRPPRLPRPRPRPRWVPRP, the “shrunken log2 fold change” value is reported as 0.345.
With RRIRNRPPRLPRPRPRPEAAPRP the “shrunken log2 fold change” value was 0.902.
For RRIRKRPPRLPRPRPRPPLEPRP, the “shrunken log2 fold change” value was 0.456.
With RRIRGRPPRLPRPRPRPGQFPRP the “shrunken log2 fold change” value was -0.00612.
RRIRHRPPRLPRPRPRPLYQPRP was tested, and the “shrunken log2 fold change” value was -0.112.
For RRIRQRPPRLPRPRPRPPVTPRP, the “shrunken log2 fold change” value was 0.199.
RRIRWRPPRLPRPRPRPAAWPRP was tested, and the “shrunken log2 fold change” value was 0.121.
With RRIRGRPPRLPRPRPRPFRYPRP the “shrunken log2 fold change” value was 0.0984.
RRIRQRPPRLPRPRPRPKIVPRP was tested, and the “shrunken log2 fold change” value was -0.113.
For RRIRYRPPRLPRPRPRPDDKPRP, the “shrunken log2 fold change” value was -1.56.
With RRIRLRPPRLPRPRPRPHCRPRP the “shrunken log2 fold change” value was -0.254.
With RRIRTRPPRLPRPRPRPQPDPRP the “shrunken log2 fold change” value was -0.136.
For RRIRMRPPRLPRPRPRPPHLPRP, the “shrunken log2 fold change” value was 0.389.
With RRIRFRPPRLPRPRPRPQAQPRP the “shrunken log2 fold change” value was 0.023.
In the case of RRIRKRPPRLPRPRPRPEWVPRP, the “shrunken log2 fold change” value is reported as 0.478.
For RRIRYRPPRLPRPRPRPKKPPRP, the “shrunken log2 fold change” value was 0.00704.
With RRIRIRPPRLPRPRPRPAIQPRP the “shrunken log2 fold change” value was -0.143.
In the case of RRIRCRPPRLPRPRPRPRKAPRP, the “shrunken log2 fold change” value is reported as 0.578.
With RRIRVRPPRLPRPRPRPMPSPRP the “shrunken log2 fold change” value was 0.333.
In the case of RRIRMRPPRLPRPRPRPCAKPRP, the “shrunken log2 fold change” value is reported as 0.207.
In the case of RRIRARPPRLPRPRPRPATWPRP, the “shrunken log2 fold change” value is reported as 0.37.
With RRIRFRPPRLPRPRPRPQWRPRP the “shrunken log2 fold change” value was 1.49.
In the case of RRIRYRPPRLPRPRPRPLMGPRP, the “shrunken log2 fold change” value is reported as -0.0741.
RRIRGRPPRLPRPRPRPGWSPRP was tested, and the “shrunken log2 fold change” value was 0.758.
In the case of RRIRTRPPRLPRPRPRPVEIPRP, the “shrunken log2 fold change” value is reported as -0.2.
For RRIRNRPPRLPRPRPRPKGWPRP, the “shrunken log2 fold change” value was 0.439.
RRIRIRPPRLPRPRPRPLMCPRP was tested, and the “shrunken log2 fold change” value was -0.164.
RRIRSRPPRLPRPRPRPNVWPRP was tested, and the “shrunken log2 fold change” value was 0.109.
In the case of RRIRFRPPRLPRPRPRPSWLPRP, the “shrunken log2 fold change” value is reported as 0.156.
With RRIRERPPRLPRPRPRPKTVPRP the “shrunken log2 fold change” value was -0.0153.
